Results as given in patent US20190276557A1 (APROGEN KIC, published 2019).

Target: recombinant protein carbonic anhydrase 12 (R&D Systems) (Homo sapiens (Human), UniProt O43570 25-291, limits assumed)
Sequence (O43570 25-291 limits assumed): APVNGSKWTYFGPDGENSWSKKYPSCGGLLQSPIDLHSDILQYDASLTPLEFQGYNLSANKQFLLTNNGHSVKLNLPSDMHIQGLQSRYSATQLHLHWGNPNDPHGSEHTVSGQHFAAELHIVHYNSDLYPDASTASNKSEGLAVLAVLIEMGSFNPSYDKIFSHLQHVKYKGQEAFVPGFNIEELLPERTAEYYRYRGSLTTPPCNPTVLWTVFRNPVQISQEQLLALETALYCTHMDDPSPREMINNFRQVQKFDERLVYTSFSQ

B1: clone ID 1 (phage displayed scFv) (scFv)
chain: EVQLVESGGGLVQPGGSLRLSCAASGYSYTDYNIYWVRQAPGKGLEWVGYIDPANGDTTYNQKFKGRATISVDKSKNTAYLQMNSLRAEDTAVYYCSRPIYYGAYWYFDVWGQGTLVTVSSDIQMTQSPSSLSASVGDRVTITCRASSPVTYMHWYQQKPGKAPKPWIYATSSLAPGVPSRFSGSGSGTDFTLTISSLQPEDFATYYCQQWSSNPLTFGQGTKVEIK
With B1 as the binder, how does the “ELISA signal relative to the 4B4 chimeric antibody” value read?
The value was 1.5 times.
